Patent US11535650 (RA PHARMACEUTICALS, dated 2022)
Each block holds one binder with its values, some of them ahead of it. Starred links: 1 amine or outer side, 2 acyl side, 3 side chain; linkers in the order of their positions; H or OH if unused. Positions of bridges follow the written chain, without caps; N, C: chain ends. Non-standard residues stand in square brackets, D forms with d. No end group written: not given here. *: point of attachment. mXylyl = bridging moiety between residues (mXylyl(i,j)); Trp(7-aza) = N[C@@H](Cc1c[nH]c2ncccc12)C(=O)O; ivDde = CC(C)CC(=C1C(=O)CC(C)(C)CC1=O)*; pXylylene = c1cc(C[*:2])ccc1C[*:1]; NMeD = CN[C@@H](CC(=O)O)C(=O)O; Chg = N[C@H](C(=O)O)C1CCCCC1; Phg = N[C@H](C(=O)O)c1ccccc1; Tle = CC(C)(C)[C@H](N)C(=O)O; NMeS = CN[C@@H](CO)C(=O)O; Nva = CCC[C@H](N)C(=O)O

Legend:
human C5 protein [1] = target: T1, human C5 protein (human, UniProt P01031 19-673; P01031 678-1676); test: cell-based or functional assay
human C5 protein [2] = target: T1, human C5 protein; test: competitive fluorescence polarization vs probe R3076, Exp 1
Protocol: (§1) Test articles listed in Table 7 were subsequently diluted in DMSO then assay buffer, comprising 10 2-fold dilutions and were then added to the assay plate in triplicate, rapidly. The assay plate was then incubated in the Paradigm (Molecular Devices, Sunnyvale, Calif.) plate reader for 60 minutes at 25° C.
(§2) After incubation for 60 minutes, the plate was read using the Paradigm FP protocol (Molecular Devices, Sunnyvale, Calif.) and raw polarization values were imported into Graphpad Prism.

human C5 protein [3] = target: T1, human C5 protein; test: cell-based or functional assay; remark: listed apart in the source
human C5 protein [4] = target: T1, human C5 protein; test: competitive fluorescence polarization vs probe R3076, Exp 2
Protocol: as §1, §2

human C5 protein [5] = target: T1, human C5 protein; test: competitive fluorescence polarization vs probe R3076, average of two experiments
Protocol: as §1, §2

human C5 protein [6] = target: T1, human C5 protein; test: cell-based or functional assay; remark: listed apart in the source
human C5 protein [7] = target: T1, human C5 protein; test: fluorescence polarization, 25 nM R3076 with increasing concentrations of C5, average of 10 to 60 minutes
Protocol: Polarization was measured over time, until binding reached equilibrium. K_D was determined using Graphpad Prism (using "Saturating Binding Curves, One Site—Specific Binding With Hill Slope" as the curve fit to determine K_D).

Binder: VCYENGYWEYPGV (Ac-Nvl-C-Y-E-N-Tbg-Y-azaTrp-E-Y-P-Phg-Nvl-NH2) [R3002]
IC50, C5a EIA on supernatant of human RBC hemolysis assay (human C5 protein [1]): 5.4 nM

IC50 (human C5 protein [2]): 295 nM | Ki (human C5 protein [2]): 73.2 nM | IC50 (human C5 protein [4]): 261 nM | Ki (human C5 protein [4]): 86.9 nM | IC50 (human C5 protein [5]): 278 nM | Ki (human C5 protein [5]): 80 nM
Binder: Ac-[Nva]C[Phg]T[Trp(7-aza)]EY[NMeS]HC[Nva]P-NH2 (linker 2-10 via mXylyl) [R3011]
Avg. IC50, human hemolysis assay (complete human sera) (human C5 protein [3]): 112 nM

Binder: [(desamino)Cys]VERFC[NMeD][Tle]Y[Trp(7-aza)]EYP[Chg]K(C16) (bridge 1-6) [R3198]
Avg. IC50, hemolysis assay (C5 depleted sera + purified human C5) (human C5 protein [6]): 142 nM

IC50 (human C5 protein [2]): > 1000 nM | Ki (human C5 protein [2]): > 1000 nM | IC50 (human C5 protein [4]): > 1000 nM | Ki (human C5 protein [4]): > 1000 nM | IC50 (human C5 protein [5]): > 1000 nM | Ki (human C5 protein [5]): > 1000 nM
B1: R3023 (peptide)
peptide: Ac-YPYC[Phg][Trp(7-aza)][Tle]E[Nva]NY[Nva]E-NH2
SMILES: CCC[C@H](NC(=O)[C@H](Cc1ccc(O)cc1)NC(=O)[C@H](CC(N)=O)NC(=O)[C@H](CCC)NC(=O)[C@H](CCC(=O)O)NC(=O)[C@@H](NC(=O)[C@H](Cc1c[nH]c2ncccc12)NC(=O)[C@@H](NC(=O)[C@H](CS)NC(=O)[C@H](Cc1ccc(O)cc1)NC(=O)[C@@H]1CCCN1C(=O)[C@H](Cc1ccc(O)cc1)NC(C)=O)c1ccccc1)C(C)(C)C)C(=O)N[C@@H](CCC(=O)O)C(N)=O
notes: negative control in the FP assays; also called control polypeptide; scrambled polypeptide variant of R3002
Avg. IC50, human hemolysis assay (complete human sera) (human C5 protein [3]): > 100000 nM

Kd (human C5 protein [7]): 8.07 nM
B2: R3076 (peptide)
peptide: VVYENGYWEYPGVK
modifications: Ac-Nvl-Nvl-Y-E-N-Tbg-Y-azaTrp-E-Y-P-Chg-Nvl-K-(BODIPY-TMR-X) NH2
notes: R3072 with BODIPY-TMR dye on the C-terminal lysine; fluorescent probe of the FP assay; also called Probe R3076; labeled probe
Avg. IC50, human hemolysis assay (complete human sera) (human C5 protein [3]): 297 nM

Binder: Ac-KVERFD[NMeD][Tle]YWEYP[Chg]K (lactam 1-6) [R3196]
Avg. IC50, hemolysis assay (C5 depleted sera + purified human C5) (human C5 protein [6]): 3 nM

IC50 (human C5 protein [2]): 4330 nM | Ki (human C5 protein [2]): 866 nM | IC50 (human C5 protein [4]): 4120 nM | Ki (human C5 protein [4]): 882 nM | IC50 (human C5 protein [5]): 4230 nM | Ki (human C5 protein [5]): 874 nM
Binder: MCVERFCDVYWE-NH2 (linker 2-7 via mXylyl) [R3043]
Avg. IC50, human hemolysis assay (complete human sera) (human C5 protein [3]): 934 nM

Binder: [(desamino)Cys][dA]ERFC[NMeD][Tle]Y[Trp(7-aza)]EYP[Chg]K(C16) (bridge 1-6) [R3199]
Avg. IC50, hemolysis assay (C5 depleted sera + purified human C5) (human C5 protein [6]): 112 nM

Binder: Ac-KVERFD[NMeD][Tle]YWEYP[Chg]K(C16) (lactam 1-6) [R3195]
Avg. IC50, hemolysis assay (C5 depleted sera + purified human C5) (human C5 protein [6]): 62.5 nM

Binder: Ac-[Nva]C[Phg]T[Trp(7-aza)]EY[NMeS]HC[Nva]P[Nva]-NH2 (linker 2-10 via mXylyl) [R3008]
IC50, C5a EIA on supernatant of human RBC hemolysis assay (human C5 protein [1]): 54.5 nM | IC50, membrane attack complex (MAC) EIA on supernatant of human RBC hemolysis assay (human C5 protein [1]): 33 nM | Avg. IC50, human hemolysis assay (complete human sera) (human C5 protein [3]): 97 nM

Binder: Ac-KVERFD[NMeD][Tle]YWEYP[Chg]K(ivDde) (lactam 1-6) [R3197]
Avg. IC50, hemolysis assay (C5 depleted sera + purified human C5) (human C5 protein [6]): 4 nM

IC50 (human C5 protein [2]): 72.7 nM | Ki (human C5 protein [2]): 10.4 nM | IC50 (human C5 protein [4]): 64.1 nM | Ki (human C5 protein [4]): 8.69 nM | IC50 (human C5 protein [5]): 68.4 nM | Ki (human C5 protein [5]): 9.54 nM
B3: R3003 (peptide)
peptide: Ac-[Nva]CYEN[Tle]Y[Trp(7-aza)]EYP[Phg]P-NH2
SMILES: CCC[C@H](NC(C)=O)C(=O)N[C@@H](CS)C(=O)N[C@@H](Cc1ccc(O)cc1)C(=O)N[C@@H](CCC(=O)O)C(=O)N[C@@H](CC(N)=O)C(=O)N[C@H](C(=O)N[C@@H](Cc1ccc(O)cc1)C(=O)N[C@@H](Cc1c[nH]c2ncccc12)C(=O)N[C@@H](CCC(=O)O)C(=O)N[C@@H](Cc1ccc(O)cc1)C(=O)N1CCC[C@H]1C(=O)N[C@H](C(=O)N1CCC[C@H]1C(N)=O)c1ccccc1)C(C)(C)C
Avg. IC50, human hemolysis assay (complete human sera) (human C5 protein [3]): 13.9 nM

IC50 (human C5 protein [2]): 267 nM | Ki (human C5 protein [2]): 71.1 nM | IC50 (human C5 protein [4]): 293 nM | Ki (human C5 protein [4]): 57.6 nM | IC50 (human C5 protein [5]): 280 nM | Ki (human C5 protein [5]): 64.3 nM
Binder: Ac-[Nva]C[Phg]T[Trp(7-aza)]EY[NMeS]HC[Nva]-NH2 (linker 2-10 via pXylylene) [R3050]
Avg. IC50, human hemolysis assay (complete human sera) (human C5 protein [3]): 42.9 nM

IC50 (human C5 protein [2]): 6060 nM | Ki (human C5 protein [2]): 1400 nM | IC50 (human C5 protein [4]): 7580 nM | Ki (human C5 protein [4]): 1580 nM | IC50 (human C5 protein [5]): 6820 nM | Ki (human C5 protein [5]): 1500 nM
Binder: Ac-C[Phg]T[Trp(7-aza)]EY[NMeS]HC[Nva]P[Nva]-NH2 (linker 1-9 via mXylyl) [R3014]
Avg. IC50, human hemolysis assay (complete human sera) (human C5 protein [3]): 1420 nM
